# US20220227815A1, “COMPOSITIONS AND METHODS USEFUL IN TREATING BRAIN DISEASES” (University of Kansas, priority 2019, published 2022)
# Tested on: EGR1, ARC, and NOS1 mRNA transcripts
# Test: Fluorescent in situ hybridization of mRNA transcripts in EAE mouse cortex
# Type: in vivo, SJL/elite mice
# Settings: across the three groups, n=5
# Procedure: Coronal brain sections (5 μm thickness) from mid- and hind-brain were sectioned and washed three times in PBS before mounting on gelatin-coated glass slides (Superfrost Plus, Thermo Fisher Scientific). Tissue was allowed to dry at RT and then stored at −20° C. until use. Fluorescent in situ hybridization (FISH) was performed using RNAscope® Technology 2.0, Advanced Cell Diagnostics (ACD), Hayward, Calif.) Multiplex Reagent Kit V2. See Vasquez, J. J.; Hussien, R.; Aguilar-Rodriguez, B.; Junger, H.; Dobi, D.; Henrich, T. J.; Thanh, C.; Gibson, E.; Hogan, L. E.; McCune, J.; Hunt, P. W.; Stoddart, C. A.; Laszik, Z. G. Elucidating the Burden of HIV in Tissues Using Multiplexed Immunofluorescence and In Situ Hybridization: Methods for the Single-Cell Phenotypic Characterization of Cells Harboring HIV In Situ. J Histochem Cytochem 2018, 66, (6), 427-446; Gershon, T. R.; Crowther, A. J.; Liu, H.; Miller, C. R.; Deshmukh, M. Cerebellar granule neuron progenitors are the source of Hk2 in the postnatal cerebellum. Cancer Metab 2013, 1, (1), 15; and Smith, P. A.; Schmid, C.; Zurbruegg, S.; Jivkov, M.; Doelemeyer, A.; Theil, D.; Dubost, V.; Beckmann, N. Fingolimod inhibits brain atrophy and promotes brain-derived neurotrophic factor in an animal model of multiple sclerosis. J Neuroimmunol 2018, 318, 103-113. […]
molecule,measurement,value
"BDNF: recombinant brain-derived neurotrophic factor (13 kDa monomer), Peprotech (protein, UniProt P23560 19-247, looked up) Neurotrophic factor BDNF …: APMKEANIRGQGGLAYPGVRTHGTLESVNGPKAGSRGLTSLADTFEHVIEELLDEDQKVRPNEENNKDADLYTSRVMLSSQVPLEPPLLFLLEEYKNYLDAANMSMRVRRHSDPARRGELSVCDSISEWVTAADKKTAVDMSGGTVTVLEKVPVSKGQLKQYFYETKCNPMGYTKEGCRGIDKRHWNSQCRTTQSYVRALTMDSKKRIGWRFIRIDTSCVCTLTIKRGR",NOS mRNA expression,no significant difference
